# Experiments:
# [1] = target: Vpu of wildtype HIV-1 NL4.3 (expressed from the virus); assay: co-immunoprecipitation (anti-tetherin IP, Western blot, LiCor quantitative imager); settings: 293T/tetherin Y6,8A cells, MOI of 2, 48 h post infection, read off a plot
# [2] = target: tetherin Y6,8A (stably expressed in 293T/tetherin Y6,8A cells) (UniProt Q10589); assay: as above; settings: MOI of 2, 48 h post infection
Substance,response (ratio Vpu/tetherin band intensity in IP) ([1]; UBAP1 siRNA),response (ratio Vpu/tetherin band intensity in IP) ([1]; control siRNA),"response (ratio Vpu/tetherin band intensity in IP) ([2]; UBAP1 siRNA, parent: est. 1.3, read off a plot)","response (ratio Vpu/tetherin band intensity in IP) ([2]; control siRNA, parent: est. 1.6, read off a plot)"
human tetherin (stably expressed in 293T/tetherin cells) (from UniProt Q10589) Y6A; Y8A,1.3,1.6,,
Vpu of wildtype HIV-1 NL4.3 (expressed from the virus) E59A; L63A; V64A,,,0.9,0.5

# From article PMC3315493
